Reference: the supplement of paper PMC10266784

B1: library; numbered along this chain (parent)
chain: MAAAAAAAAEQQSSNGPVKKSMREKAVERRSVNKEHNSNFKAGYIPIDEDRLHKTGLRGRKGNLAICVIILLFILAVINLIITLVIWAVIRIGPNGCDSMEFHESGLLRFKQVSDMGVIHPLYKSTVGGRRNENLVITGNNQPIVFQQGTTKLSVENNKTSITSDIGMQFFDPRTQNILFSTDYETHEFHLPSGVKSLNVQKASTERITSNATSDLNIKVDGRAIVRGNEGVFIMGKTIEFHMGGNMELKAENSIILNGSVMVSTTRLPSSSSGDQLGSGDWVRYKLCMCADGTLFKVQVTSQNMGCQISDNPCGNTH

Variants of: B1
Experiment: SGCB cell-surface expression functional score (HA stain, bin4 vs bin1, normalised to synonymous) (log10 ratio); higher = more cell-surface SGCB (functional)
Description: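 Deep mutational scan of full-length human SGCB (YFP-SGCB-HA, NNN codon sublibraries A-F) delivered by lentivirus at low MOI into ADG-HEK293 cells stably expressing SGCA, SGCD and SGCG. YFP-positive cells were stained for surface HA on unpermeabilized cells and FACS-sorted into bins. The functional score is log10(frequency in high bin 4 / frequency in low bin 1), normalised per chunk so that synonymous variants have mean 0 and SD 0.5. Scores are the median over codons and over duplicate biological replicates; scores below -0.5 are called non-functional. Scale: negative means deleterious.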

SGCB cell-surface expression functional score (log10), by site and new letter:
K19: W 0.32 | Q -0.12 | T -0.07 | S 0.21 | V -0.01 | P 0.42 | Y 0.34 | R 0.18
E28: T 0.1 | M 0.57 | I 0.42 | V 0.15 | W -0.12 | N -0.09 | F 0.2 | G -0.33 | L 0.05 | Y 0.37 | P 0.08 | S 0.21 | R 0.1 | C 0.35 | D -0.25 | K -0.15 | H -0.19 | Q 0 | A -0.15
H36: F -0.16 | Y 0.15 | P 0.32 | G 0.11 | S 0.21 | D 0.26 | N 0.25 | M -0.06 | A 0.35 | I 0.09 | V 0.28 | K 0.53 | T -0.13 | E 0.05 | W -0.09 | Q 0.22 | R -0.04 | C -0.16 | L -0.04
M22: I -0.22 | H 0.19 | S 0.52 | R 0.01 | A 0.08 | P 0.17 | C 0.56 | K 0.08 | E 0.07 | L 0.37 | T 0.16 | V 0.01 | N 0.39 | Q 0.27 | D -0.21 | F 0.1 | Y -0.14 | G -0.11 | W 0.08
R23: N 0.03 | D -0.13 | S -0.16 | V 0.59 | P 0.31 | H 0.2 | I -0.31 | C 0.49 | K -0.04 | M -0.27 | T 0.24 | Y 0.05 | E 0.28 | A -0.06 | G 0.48 | L 0.16 | W -0.61 | F 0.12 | Q 0.33
S31: A -0.25 | T 0.06 | M -0.69 | H 0.19 | I 0.39 | W 0.21 | K 0.25 | Q -0.35 | D 0.16 | E 0.24 | F -0.24 | G 0.19 | C 0.19 | Y -0.26 | R -0.03 | V 0.19 | L 0.11 | P 0.13 | N 0.37
K20: L 0.12 | R 0.2 | C 0.12 | Y -0.59 | F 0.1 | N -0.16 | D 0.22 | I 0.09 | W 0.05 | H -0.13 | Q 0.49 | A 0.08 | M 0.39 | E 0.06 | S 0.14 | V 0.32 | T 0 | P 0.39 | G -0.09
N37: D -0.35 | C 0.35 | A 0.08
V27: N 0.45 | Y 0.26 | W 0.1 | L 0.26 | C -0.05 | S 0.13 | M -0.41 | E 0.04 | Q 0.09 | A 0.22 | D -0.2 | F 0.28 | P -0.17 | T 0.04 | H 0.05 | I 0.03 | K 0.02 | G -0.22 | R 0.06
A26: P 0.09 | H 0.39 | Y -0.11 | K 0.41 | I 0.06 | L -0.05 | Q 0.19 | E 0.27 | D 0.34 | S 0.09 | R 0.15 | M 0.77 | F 0.47 | W 0.15 | V 0.53 | G -0.21 | N -0.24 | C -0.13 | T 0.24
R30: D 0.85 | T 0.19 | W 0.33 | A 0.22 | Y -0.56 | I -0.19 | V -0.05 | K 0.16 | E 0.42 | N 0.64 | L 0.15 | F 0.27 | G 0.59 | C 0.31 | H -0.02 | S 0.04 | Q 0.15 | M -0.06 | P -0.15
E24: F -0.05 | T 0.2 | H 0.46 | A 0 | K 0.09 | Q 0.01 | N 0.02 | I 0.08 | S 0.26 | L 0.02 | G 0.08 | R -0.41 | D 0.17 | V 0.26 | M -0.63 | Y -0.19 | W 0.05 | C -0.3 | P 0
V32: S 0.11 | T -0.08 | A 0.26 | F -0.5 | M -0.13 | Y -0.45 | G 0.1 | N 0.67 | W -0.05 | L -0.06 | E -0.59 | I 0.36 | P 0.11 | D 0.47 | R 0.37 | C 0.14 | H 0.35 | Q -0.03 | K -0.04
R29: H -0.15 | G 0.3 | K -0.66 | C 0.5 | Y 0.23 | P 0.32 | F -0.17 | Q 0.16 | V -0.29 | W 0.21 | L -0.3 | E 0.41 | N 0.21 | D -0.22 | M -0.81 | T -0.04 | I 0.13 | S 0.25 | A 0.46
S21: L -0.08 | F -0.32 | Q -0.25 | V 0.14 | Y -0.19 | I 0.3 | N 0.32 | K 0.75 | W 0.3 | T 0.07 | H 0.03 | M -0.02 | E -0.28 | C 0.5 | D 0.33 | P 0.12 | R 0.08 | A 0.2 | G 0.23
K34: E 0.34 | R 0.1 | W 0.11 | F -0.14 | Y 0.56 | P 0.25 | N -0.07 | V 0.44 | M -0.24 | L 0.21 | T 0.27 | H 0.6 | I -0.05 | A -0.03 | G 0.01 | S 0.52 | C 0.33 | D 0.26 | Q -0.08
N33: W -0.14 | Y 0.04 | E 0.11 | D 0.4 | G 0.33 | M 0.11 | T -0.07 | P 0.04 | L -0.11 | I 0.03 | V 0.23 | H 0.48 | A 0.36 | Q -0.23 | F 0.1 | R 0.1 | S -0.01 | K 0.24 | C -0.01
K25: T 0.27 | L 0.18 | G -0.06 | A -0.05 | N 0.42 | C 0.39 | Q 0.5 | V 0.16 | Y -0.31 | W -0.25 | E 0.07 | H -0.78 | F -0.28 | I 0.13 | S 0.46 | R -0.14 | P 0.05 | M -0.1 | D 0.19
E35: P -0.21 | L -0.2 | R 0.18 | M 0.1 | I 0.08 | C -0.07 | G 0.11 | F -0.1 | V 0.1 | W 0.28 | N 0.01 | S 0.03 | T 0.06 | D 0.11 | A 0.3 | Q -0.06 | K 0.23 | Y 0.26 | H 0.32
